Our source for the ELISA values is patent US20140050743A1, “BINDING PROTEINS TO INHIBITORS OF COAGULATION FACTORS” (BAYER INTELLECTUAL PROPERTY GMBH, priority 2011, published 2014).

The test can be described thus: ELISA-based activity assay of antibody variants without a competition step. The test is classed as binding. Details: key: +++: Variants with an average ratio above reference plus 2×SD; +/−: variants with a ratio below reference minus 2×SD; ++: All variants with a performance in between both thresholds; −: Variants with a ratio below 0.5. The following applies: Table 10, multiple substitutions within M14-G07, variant to reference ratio (reference 2-fold improved over wt). Here is the method: To determine the activity of the mutated antibody variants on compound from Example 1K an equilibrium or dissociation limited ELISA assay format was used. Briefly, MTP plates (Nunc Maxisorp black, 460518) were coated with 4 μg/ml streptavidin (Calbiochem, 189730) diluted in coating buffer (Candor Bioscience GmbH, 121500) and incubated over night at 4° C. After washing with PBST, plates were blocked with 100% Smart Block (Candor Bioscience GmbH, 113500) in PBST for 1 h at room temperature and the washing step was repeated. Plates were incubated with compound from Example 1K at varying concentrations (0.3-200 nM) for 1 h at 37° C., washed with PBST and antibody fragments were immobilized by adding 25 μl of the crude bacterial cultures for 1 h at room temperature. After washing with PBST a competition step or the immediate detection was performed. […] For the detection of the residually bound Fabs a HRP-coupled anti-lambda antibody (Sigma, A5175) diluted in 10% Smart Block in PBST was added for 1 h at room temperature. After washing 10 μM Amplex Red (Invitrogen, A12222) were added and incubated for 10 to 30 min at room temperature followed by measurement of the fluorescence signal.
Provided in Table 9 are several examples of single and/or double amino acid substitutions introduced into the heavy and/or the light chain of M14-G07 (wt). Performance of the variants was analyzed in quadruples in the ELISA without a competition step and the FXa deinhibition assay (FXa DIA). In the ELISA, averages were calculated and normalized to the respective average expression level. Overall performance of variants was evaluated by comparing the variant to wt ratio from 2-3 independent experiments. Variants with an average ratio above wt plus 2×SD (standard deviation of the ratio) were considered as improved and are marked with “++”, whereas variants with a ratio below wt minus 2×SD were considered as reduced in their binding affinity and are marked with “−”. All variants with a performance in between both thresholds are marked with “+/−”. Variants with average fluorescence counts below the negative control (non-expressing cells) plus 3×SD were considered as non-binding and marked with “−−” with none of the variants fulfilling this criteria. In the FXa deinhibition assay averages were calculated and overall performance of variants was evaluated by comparing the variant to wt ratio from 2-3 independent experiments. Variants with an average ratio above wt plus 2×SD were considered as improved and are marked with “++”, whereas variants with a ratio below wt minus 2×SD were considered as either reduced in their binding affinity or non-binding and are marked with “−−”. All variants with a performance in between both thresholds are marked with “+/−”. Variants not analyzed are marked with “nd” (not determined). CDRs were defined according to Kabat.
Provided in Table 10 are examples of combined amino acid substitutions within M14-G07 antibodies. While not every combination is provided in Table 10, it is contemplated that the anti-rivaroxaban antibody may comprise any combination of modifications provided. Variant performance was analyzed in quadruples in the ELISA without a competition step. Averages were calculated, average background signals determined on a streptavidin coated plate without compound from Example 1K were subtracted if the compound from Example 1K concentration used for coating was below 10 nM and signals were normalized to the respective average expression level. Overall performance of variants was evaluated by comparing the variant to reference ratio from 2-3 independent experiments using a 2-fold improved reference variant as compared to wt. Variants with an average ratio above reference plus 2×SD are marked with “+++”, whereas variants with a ratio below reference minus 2×SD are marked with “+/−”. All variants with a performance in between both thresholds are marked with “++”. […]
(An ELISA detects its analyte on a solid surface through an enzyme-linked reagent.)

B1: M14-G07-27: antibody, Vh SEQ ID NO: 179, Vl SEQ ID NO: 180 (antibody, listed as Homo Sapiens, V domains shown)
VH: EVQLLESGGGLVQPGGSLRLSCAASGFTFSSYAMSWVRQAPGKGLEWVGGISGSGGSTYYADSVKGRFTISRDNSKNTLYLQMNSLRAEDTAVYYCARQGRTSFYLDVWGQGTLVTVSS
VL: QSVLTQPPSASGTPGQRVTISCSGSSSNIGAYYVYWYQQLPGTAPKLLIYDNNQRPSGVPDRFSGSKSGTSASLAISGLRSEDEADYYCVAWDDSYSGHWVFGGGTKLTVL
Take B1: the ELISA result was “+++”.

B2: M14-G07-32: antibody, Vh SEQ ID NO: 189, Vl SEQ ID NO: 190 (antibody, listed as Homo Sapiens, V domains shown)
VH: EVQLLESGGGLVQPGGSLRLSCAASGFRFSSYAMSWVRQAPGKGLEWVGGISGSGGSTYYADSVKGRFTISRDNSKNTLYLQMNSLRAEDTAVYYCARQGRTSFYLDVWGQGTLVTVSS
VL: QSVLTQPPSASGTPGQRVTISCSGSSSNIGAYYVYWYQQLPGTAPKLLIYDNRQRPSGVPDRFSGSKSGTSASLAISGLRSEDEADYYCVAWDDSLSGHWVFGGGTKLTVL
B2: the ELISA entry is “+++”.

B3: M14-G07-33: antibody, Vh SEQ ID NO: 191, Vl SEQ ID NO: 192 (antibody, listed as Homo Sapiens, V domains shown)
VH: EVQLLESGGGLVQPGGSLRLSCAASGFRFSSYAMSWVRQAPGKGLEWVGGISGSGGSTYYADSVKGRFTISRDNSKNTLYLQMNSLRAEDTAVYYCARQGRTSFYLDVWGQGTLVTVSS
VL: QSVLTQPPSASGTPGQRVTISCSGSSRNIGAFYVYWYQQLPGTAPKLLIYDNNQRPSGVPDRFSGSKSGTSASLAISGLRSEDEADYYCVAWDWSYSGHWVFGGGTKLTVL
In the case of B3, the ELISA result is recorded as “+++”.

B4: M14-G07-28: antibody, Vh SEQ ID NO: 181, Vl SEQ ID NO: 182 (antibody, listed as Homo Sapiens, V domains shown)
VH: EVQLLESGGGLVQPGGSLRLSCAASGFTFSSYAMSWVRQAPGKGLEWVGGISGSGGSTYYADSVKGRFTISRDNSKNTLYLQMNSLRAEDTAVYYCARQGRTSFYLDVWGQGTLVTVSS
VL: QSVLTQPPSASGTPGQRVTISCSGSSSNIGSYYVYWYQQLPGTAPKLLIYDNNQRPSGVPDRFSGSKSGTSASLAISGLRSEDEADYYCVAWDDSYSGHWVFGGGTKLTVL
B4: the ELISA entry was “+++”.

B5: M14-G07-30: antibody, Vh SEQ ID NO: 185, Vl SEQ ID NO: 186 (antibody, listed as Homo Sapiens, V domains shown)
VH: EVQLLESGGGLVQPGGSLRLSCAASGFTFSSYAMSWVRQAPGKGLEWVSGISGSGGSTYYADSVKGRFTISRDNSKNTLYLQMNSLRAEDTAVYYCARQGRTSFYLDVWGQGTLVTVSS
VL: QSVLTQPPSASGTPGQRVTISCSGSSRNIGSFYVYWYQQLPGTAPKLLIYDNNQRPSGVPDRFSGSKSGTSASLAISGLRSEDEADYYCVAWDDSLSGHWVFGGGTKLTVL
In the case of B5, the ELISA entry is on record as “+++”.

B6: M14-G07-29: antibody, Vh SEQ ID NO: 183, Vl SEQ ID NO: 184 (antibody, listed as Homo Sapiens, V domains shown)
VH: EVQLLESGGGLVQPGGSLRLSCAASGFRFSSYAMSWVRQAPGKGLEWVSGISGSGGSTYYADSVKGRFTISRDNSKNTLYLQMNSLRAEDTAVYYCARQGRTSFYLDVWGQGTLVTVSS
VL: QSVLTQPPSASGTPGQRVTISCSGSSSNIGAYYVYWYQQLPGTAPKLLIYDNNQRPSGVPDRFSGSKSGTSASLAISGLRSEDEADYYCVAWDWSWSGTWVFGGGTKLTVL
As to B6, the ELISA result was “+++”.

B7: M14-G07-31: antibody, Vh SEQ ID NO: 187, Vl SEQ ID NO: 188 (antibody, listed as Homo Sapiens, V domains shown)
VH: EVQLLESGGGLVQPGGSLRLSCAASGFTFSSYAMSWVRQAPGKGLEWVGGISGSGGSTYYADSVKGRFTISRDNSKNTLYLQMNSLRAEDTAVYYCARQGRTSFYLDVWGQGTLVTVSS
VL: QSVLTQPPSASGTPGQRVTISCSGSSSNIGAFYVYWYQQLPGTAPKLLIYDNNQRPSGVPDRFSGSKSGTSASLAISGLRSEDEADYYCVAWDWSLSGTWVFGGGTKLTVL
For B7, the ELISA entry is on record as “+++”.
